In article PMC12717039, “Novel mutations in the RECQL4 gene affect its helicase functions, interactions with the BLM helicase and chemotherapeutics-induced cell death”:

Legend:
[1] = molecular target: T1, RECQL4 427-1116 WT (Homo sapiens, UniProt O94761 427-1116); assay: MST; 5 mM Mg2+; no ATP mentioned; Kd only in figure; Buffer D: 10 mM HEPES pH 7.5, 50 mM NaCl, 5 mM MgCl2, 2 mM DTT (EMSA, 100 nM Cy3-DNA, 6% native PAGE); MST with 10 nM Cy5-DNA, buffer not restated; temperature; conditions: protein: recombinant; tags: GST tag removed by TEV; label: 5' Cy5 on strand 1; 3' overhang 15 nt on strand 1, 15 bp duplex
T1 sequence: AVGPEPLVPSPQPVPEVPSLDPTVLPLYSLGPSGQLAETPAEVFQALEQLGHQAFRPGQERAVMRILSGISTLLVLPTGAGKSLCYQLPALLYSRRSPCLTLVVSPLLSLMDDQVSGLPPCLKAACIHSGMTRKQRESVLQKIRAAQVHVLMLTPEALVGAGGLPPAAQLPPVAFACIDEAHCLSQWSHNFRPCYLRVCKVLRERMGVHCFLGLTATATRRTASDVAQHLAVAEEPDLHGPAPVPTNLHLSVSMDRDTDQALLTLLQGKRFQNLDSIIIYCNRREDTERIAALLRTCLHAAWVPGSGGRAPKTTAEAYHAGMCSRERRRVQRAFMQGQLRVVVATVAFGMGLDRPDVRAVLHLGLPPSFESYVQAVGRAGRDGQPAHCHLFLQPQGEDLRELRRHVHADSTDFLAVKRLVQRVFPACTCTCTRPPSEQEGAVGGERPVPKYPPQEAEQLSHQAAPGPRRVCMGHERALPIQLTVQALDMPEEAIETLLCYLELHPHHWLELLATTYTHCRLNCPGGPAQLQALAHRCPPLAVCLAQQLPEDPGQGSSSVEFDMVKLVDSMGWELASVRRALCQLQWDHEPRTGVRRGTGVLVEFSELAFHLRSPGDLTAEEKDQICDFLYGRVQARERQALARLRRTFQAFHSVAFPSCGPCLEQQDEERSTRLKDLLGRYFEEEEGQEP

[2] = molecular target: T2, RECQL4 427-1116 P532S (Homo sapiens, UniProt O94761 427-1116, P532S); assay: as above; conditions: protein: recombinant; tags: GST tag removed by TEV; label: 5' Cy5 on strand 1; 3' overhang 15 nt on strand 1, 15 bp duplex
T2 sequence: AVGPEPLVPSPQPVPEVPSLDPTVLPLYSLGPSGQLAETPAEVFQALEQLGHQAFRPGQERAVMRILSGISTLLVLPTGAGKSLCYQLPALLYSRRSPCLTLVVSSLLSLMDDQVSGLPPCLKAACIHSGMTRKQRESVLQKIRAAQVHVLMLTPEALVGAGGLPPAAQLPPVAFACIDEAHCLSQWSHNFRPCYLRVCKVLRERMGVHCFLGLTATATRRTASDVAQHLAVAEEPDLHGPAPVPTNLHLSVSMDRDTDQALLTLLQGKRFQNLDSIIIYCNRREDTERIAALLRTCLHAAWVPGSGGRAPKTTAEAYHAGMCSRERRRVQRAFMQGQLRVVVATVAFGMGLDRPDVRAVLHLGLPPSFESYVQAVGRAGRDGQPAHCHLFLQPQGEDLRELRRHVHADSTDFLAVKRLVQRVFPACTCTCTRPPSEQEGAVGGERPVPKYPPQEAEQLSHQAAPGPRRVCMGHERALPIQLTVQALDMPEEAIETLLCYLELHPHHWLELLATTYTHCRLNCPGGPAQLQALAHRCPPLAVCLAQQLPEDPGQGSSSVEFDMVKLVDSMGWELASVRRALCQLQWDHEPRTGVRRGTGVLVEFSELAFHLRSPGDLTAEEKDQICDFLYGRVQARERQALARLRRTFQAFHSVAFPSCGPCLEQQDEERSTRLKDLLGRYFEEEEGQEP

B1: OH-Cy5/CQ dsDNA with 3' ss overhang (MST) (dsDNA)
DNA 1: CCATTCCACCCTCTATTTTTTTTTTTTTTT
DNA 2: TAGAGGGTGGAATGG
B1: binds [1]; binds [2].
